# T1: human TREM2 (triggering receptor expressed on myeloid cells 2) (human) (UniProt Q9NZC2)
# T1 sequence (looked up): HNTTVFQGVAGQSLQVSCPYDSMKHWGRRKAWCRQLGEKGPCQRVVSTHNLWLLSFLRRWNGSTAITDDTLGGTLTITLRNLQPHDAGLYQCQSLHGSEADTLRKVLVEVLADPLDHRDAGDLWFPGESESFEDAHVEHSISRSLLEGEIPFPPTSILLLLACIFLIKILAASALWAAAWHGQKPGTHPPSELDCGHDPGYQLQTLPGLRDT
# Legend:
# [1] = target: T1, human TREM2 (triggering receptor expressed on myeloid cells 2) (human); assay: 2nd screen, 2 nM Ab
# [2] = target: T1, human TREM2 (triggering receptor expressed on myeloid cells 2) (human); assay: 1st screen, 10 nM Ab
# [3] = target: T1, human TREM2 (triggering receptor expressed on myeloid cells 2) (human); assay: 2nd screen, 10 nM Ab
Binder,Binding Signal (fold over 6E7 parental antibody) [1] [fold],Binding Signal (fold over 6E7 parental antibody) [2] [fold],Binding Signal (fold over 6E7 parental antibody) [3] [fold]
"6E7 antibody affinity modulation variant V62 (antibody, V domains shown) VH: EVQLVQSGAEVKKPGESLKISCKGSGYSFGSYWIAWVRQMPGKGLEWMGIIYPGDSDTRYAPSFQGQVTISADKSISTAYLQWSSLKASDTAMYFCARQRTFYYDSSGYFDYWGQGTLVTVSS VL: DIQMTQSPSSVSASVGDRVTITCRASQGISSWLAWYQQKPGKAPKLLIYAASSLQRGVPSRFSGSGSGTDFTLTISSLQPEDFATYFCGQADSFPRTFGQGTKLEIK",1.87,2.49,2.89
"6E7 antibody affinity modulation variant V86 (antibody, V domains shown) VH: EVQLVQSGAEVKKPGESLKISCKGSGYSFGSYWLAWVRQMPGKGLEWMGIIYPGDSDTRYSPSFEGQVTISADKSISTAYLQWSSLKASDTAMYFCARSRTFYYDSSDYFDYWGQGTLVTVSS VL: DIQMTQSPSSVSASVGDRVTITCRASQGISSWLAWYQQKPGKAPKLLIYAASSRQNGVPSRFSGSGSGTDFTLTISSLQPEDFATYFCQQADSFPRTFGQGTKLEIK",5.17,4.8,5.02
"6E7 antibody affinity modulation variant V75 (antibody, V domains shown) VH: EVQLVQSGAEVKKPGESLKISCKGSGYSFTSYWIAWVRQMPGKGLEWMGIIYPGDSDTRYSPSFQGQVTISADKSISTAYLQWSSLKASDTAMYFCARGRTFYYDSSDYFDYWGQGTLVTVSS VL: DIQMTQSPSSVSASVGDRVTITCRASQGISSWLAWYQQKPGKAPKLLIYAASSLQAGVPSRFSGSGSGTDFTLTISSLQPEDFATYFCQQADSYPRTFGQGTKLEIK",3.74,4.64,4.52
"6E7 antibody affinity modulation variant V63 (antibody, V domains shown) VH: EVQLVQSGAEVKKPGESLKISCKGSGYSFRSYWIAWVRQMPGKGLEWMGIIYPGDSDTRYSPSFQGQVTISADKSISTAYLQWSSLKASDTAMYFCARSRTFYYDSSDYFDYWGQGTLVTVSS VL: DIQMTQSPSSVSASVGDRVTITCRASQGISSWLAWYQQKPGKAPKLLIYAASSLQRGVPSRFSGSGSGTDFTLTISSLQPEDFATYFCQQADRFPRTFGQGTKLEIK",4.91,3.76,3.71
"6E7 antibody affinity modulation variant V73 (antibody, V domains shown) VH: EVQLVQSGAEVKKPGESLKISCKGSGYSFGSYWIAWVRQMPGKGLEWMGIIYPGDSDTRYSPGFQGQVTISADKSISTAYLQWSSLKASDTAMYFCARGRTFYYDSSDYFDYWGQGTLVTVSS VL: DIQMTQSPSSVSASVGDRVTITCRASQGISSWLAWYQQKPGKAPKLLIYAASSRQNGVPSRFSGSGSGTDFTLTISSLQPEDFATYFCQQADSYPRTFGQGTKLEIK",4.17,5.12,5.44
"6E7 antibody affinity modulation variant V74 (antibody, V domains shown) VH: EVQLVQSGAEVKKPGESLKISCKGSGYSFASYWIAWVRQMPGKGLEWMGIIYPGDSDVRYSPSFQGQVTISADKSISTAYLQWSSLKASDTAMYFCARGRTFYYDSSDYFDYWGQGTLVTVSS VL: DIQMTQSPSSVSASVGDRVTITCRASQGISSWLAWYQQKPGKAPKLLIYAASSLQLGVPSRFSGSGSGTDFTLTISSLQPEDFATYFCQQADSFPRTFGQGTKLEIK",2.54,3.94,4.01
"6E7 antibody affinity modulation variant V64 (antibody, V domains shown) VH: EVQLVQSGAEVKKPGESLKISCKGSGYSFQSYWIAWVRQMPGKGLEWMGIIYPGDSDTRYSPSFQGQVTISADKSISTAYLQWSSLKASDTAMYFCARGRTFYYDSSDYFDYWGQGTLVTVSS VL: DIQMTQSPSSVSASVGDRVTITCRASQGISSWLAWYQQKPGKAPKLLIYAASSLANGVPSRFSGSGSGTDFTLTISSLQPEDFATYFCQQADSYPRTFGQGTKLEIK",4.88,5.41,5.48
"6E7 antibody affinity modulation variant V2 (antibody, V domains shown) VH: EVQLVQSGAEVKKPGESLKISCKGSGSSFTSYWIAWVRQMPGKGLEWMGIIYPGDGDTRYSPSFQGQVTISADKSISTAYLQWSSLKASDTAMYFCARSRTFYYDSSDYFDYWGQGTLVTVSS VL: DIQMTQSPSSVSASVGDRVTITCRASQGISSWLAWYQQKPGKAPKLLIYAASSRQNGVPSRFSGSGSGTDFTLTISSLQPEDFATYFCQQADRFPRTFGQGTKLEIK",2.23,2.55,2.9
"6E7 antibody affinity modulation variant V76 (antibody, V domains shown) VH: EVQLVQSGAEVKKPGESLKISCKGSGYSFGSYWIAWVRQMPGKGLEWMGIIYPGDSDTRYSPEFQGQVTISADKSISTAYLQWSSLKASDTAMYFCARQRTFYYDSSDYSDYWGQGTLVTVSS VL: DIQMTQSPSSVSASVGDRVTITCRASQGISSWLAWYQQKPGKAPKLLIYAASSLQKGVPSRFSGSGSGRDFTLTISSLQPEDFATYFCQQADSFPRTFGQGTKLEIK",4.34,4.57,4.93
"6E7 antibody affinity modulation variant V89 (antibody, V domains shown) VH: EVQLVQSGAEVKKPGESLKISCKGSGYSFTSYWIAWVRQMPGKGLEWMGIIYPGDSDTRYSPSFQGQVTISADKSISTAYLQWSSLKASDTAMYFCARQRTFYYDSSDYFDYWGQGTLVTVSS VL: DIQMTQSPSSVSASVGDRVTITCRASQGISSWLAWYQQKPGKAPKLLIYAASSLQNGVPSRFSGSGSGTDFTLTISSLQPEDFATYFCQQADSHPRTFGQGTKLEIK",0.94,1.33,1.46
"6E7 antibody affinity modulation variant V65 (antibody, V domains shown) VH: EVQLVQSGAEVKKPGESLKISCKGSGYSFTSYWIAWVRQMPGKGLEWMGIIYPGDSDTRYSPSFQGQVTISADKSISTAYLQWSSLKASDTAMYFCARSRTFYYDSSDYFDYWGQGTLVTVSS VL: DIQMTQSPSSVSASVGDRVTITCRASQGISSWLAWYQQKPGKAPKLLIYAASSLQNGVPSRFSGSGSGTDFTLTISSLQPEDFATYFCQQADSFPRTFGQGTKLEIK",1.29,2.05,2.75
"6E7 antibody affinity modulation variant V85 (antibody, V domains shown) VH: EVQLVQSGAEVKKPGESLKISCKGSGYSFRSYWIAWVRQMPGKGLEWMGTIYPGDSDTRYSPSFQGQVTISADKSISTAYLQWSSLKASDTAMYFCARSRTFYYDSSDYFDYWGQGTLVTVSS VL: DIQMTQSPSSVSASVGDRVTITCRASQGISSWLAWYQQKPGKAPKLLIYAASSRQNGVPSRFSGSGSGTDFTLTISSLQPEDFATYFCQQADSFPRTFGQGTKLEIK",5.41,5.41,5.37
"6E7 antibody affinity modulation variant V3 (antibody, V domains shown) VH: EVQLVQSGAEVKKPGESLKISCKGSGYSFASYWIAWVRQMPGKGLEWMGIIYPGDSDTRYSPSFQDQVTISADKSISTAYLQWSSLKASDTAMYFCARGRTFYYDSSDYFDYWGQGTLVTVSS VL: DIQMTQSPSSVSASVGDRVTITCRASQGISSWLAWYQQKPGKAPKLLIYAASSRQNGVPSRFSGSGSGTDFTLTISSLQPEDFATYFCQQADRFPRTFGQGTKLEIK",1.95,1.97,2.24
"6E7 antibody affinity modulation variant V77 (antibody, V domains shown) VH: EVQLVQSGAEVKKPGESLKISCKGSGYSFTSYWIAWVRQMPGKGLEWMGIIYPGDSDTRYSPSFQGQVTISADKSISTAYLQWSSLKASDTAMYFCARQRTFYYDSSDYFDYWGQGTLVTVSS VL: DIQMTQSPSSVSASVGDRVTITCRASQGISSWLAWYQQKPGKAPKLLIYAASSRQNGVPSRFSGSGSGTDFTLTISSLQPEDFATYFCQQADSFPRTFGQGTKLEIK",0.83,1.43,1.38
"6E7 antibody affinity modulation variant V88 (antibody, V domains shown) VH: EVQLVQSGAEVKKPGESLKISCKGSGYSFGSYWIAWVRQMPGKGLEWMGIIYPGDSDTRYSPSFQGQVTISADKSISTAYLQWSSLKASDTAMYFCARQRTFYYDSSDYFDYWGQGTLVTVSS VL: DIQMTQSPSSVSASVGDRVTITCRASQGISSWLAWYQQKPGKAPKLLIYAASRLQRGVPSRFSGSGSGTDFTLTISSLQPEDFATYFCQQADSSPRTFGQGTKLEIK",5.57,4.92,5.3
"6E7 antibody affinity modulation variant V87 (antibody, V domains shown) VH: EVQLVQSGAEVKKPGESLKISCKGSGYSFRSYWIAWVRQMPGKGLEWMGIIYPGDSDVRYSPDFQGQVTISADKSISTAYLQWSSLKASDTAMYFCARSRTFYYDSSDYFDYWGQGTLVTVSS VL: DIQMTQSPSSVSASVGDRVTITCRASQGISSWLAWYQQKPGKAPKLLIYAASSLQWGVPSRFSGSGSGTDFTLTISSLQPEDFATYFCQQADSFPRTFGQGTKLEIK",4.86,3.84,3.93
"6E7 antibody affinity modulation variant V84 (antibody, V domains shown) VH: EVQLVQSGAEVKKPGESLKISCKGSGYGFTSYWIAWVRQMPGKGLEWMGIIYPGDSDTRYSPSFQGQVTISADKSISTAYLQWSSLKASDTAMYFCARQRTFYYDSSDYSDYWGQGTLVTVSS VL: DIQMTQSPSSVSASVGDRVTITCRASQGISSWLAWYQQKPGKAPKLLIYGASSLQNGVPSRFSGSGSGTDFTLTISSLQPEDFATYFCQQADSFPRTFGQGTKLEIK",1.45,1.44,1.62

# From US20250019437A1
